Target: Taxol-stabilised microtubules of Rhodamine-labelled tubulin (porcine) (UniProt P02550)
Test: confocal microscopy of purified proteins; Taxol-stabilised MT seeds incubated with GFP–PLK4 (1 µM) for 15 min at 37°C, mounted on a slide; condensates associated with MTs counted (N=3, n=100 spots/condition)

percent of PLK4 condensates associated with MTs: 95.4%
B1: GFP-tagged Xenopus PLK4 (wild type) (enzyme)
chain: MAGSIGERREDFKVLNLLGKGSFACVYRAQSINTGIDVAIKMIDKKAMQKVGMVQRVRNEVEIHCQLKHPSILELYNYFEDSNYVYLILEMCHNGEVNRYLKNRKKPFAEDEARHFMHQIVTGMLYLHSHGILHRDLTLSNLLLSSDMNIKIADFGLATQLKMPNEKHFTMCGTPNYIAPEIATRSAHGLESDVWSLGCMLYTFLVGRPPFDTDTVKNTLNKIVLADYEMPDFVSREAKDLIFQLLRKNPADRLSLSSVLDHAFMTGFSNVQSKVMGAVEDSMDSGHATISTGFTGSSGVSISGRFQEKRILSGPSLPNKVNIFQFKDKHPTERSNGGSFHNTQRENNDFSEGNGRKPVACEDRPHSRYLRRAHSSDRSGTSQSQTYAKPSSYSERCHSVEMLAKPTHLKGYRTSSPPNSYGDIPQMFTDERSLERHTSPPVKEKTPSEFMGPAKQTAPRSNDKAETVQQWFGAMQLNGQFKNTPDTSSVSNMGGDFYSQQATQNGAPQYAWNDVKRKKNTDSSIESVLLGIKKNPGTGQRKAEKSQFGEQSKSRVPQQAFGSSTLRSIISPLNAERLKPIRQKTKNAVVSILESGEVCMEFLKEQNSQERVKEVLRISCDGNLIYVYHPNEGKGFPLVDRPPSPPENRLSYTFDSLPEKYWKKYQYAAKFIKLVRSKTPKVTYYTRYAKCMLMENSPTADVEVCFYDGAKIHKTSDVIRVIEKSGRSYTLEGSRLSTLSDEVRSYLDHANESHCVCLSLESAINTEEKKGENISLFPITFGRRPALAESPKTQPTPSVDSARERKEEQSYVNRVLHGSAASPPQMPNLNPSLISYDGSVFSATTVQPSPTSNIHNTPDHAQVLKSVFVENVGWASQLNSGAVWVQFNDGSQLVVQPGVSSIIYTAPNGQITRHGENDKLPEYIKSKLQCLSSILMLFASSSSR

From paper PMC6398482
